# Measurements reported in article PMC9090332, “Reconstitution of surface lipoprotein translocation through the Slam translocon” (eLife, 2022).
# T1: E. coli Skp with N-terminal 6xHis tag, purified (E. coli, UniProt P0AEU7 21-161)
# T1 sequence (looked up): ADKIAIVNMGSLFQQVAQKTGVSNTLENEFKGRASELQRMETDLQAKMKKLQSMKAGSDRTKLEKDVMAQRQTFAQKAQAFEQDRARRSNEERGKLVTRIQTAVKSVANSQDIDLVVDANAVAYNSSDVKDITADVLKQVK
# B1: Moraxella catarrhalis transferrin binding protein B, C-terminal flag-tag (natural protein)
# chain: CGGSGGSNPPAPTPIPNASGSGNTGNTGNAGGTDNTANAGNTGGASSGTGSANTPEPKYQDVPTDKNEKEQVSPIQEPAMGYGMALSKINLHNRQDTPLDEKNIITLDGKKQVAEGKKSPLPFSLDVENKLLDGYIAKMDKADKNAIRRRIESENKAKPLSEAELAEKIKEAVRKSYEFQQVMTSLENKIFHSNDGTTKATTRDLQYVDYGYYLANDANYLTVKTDKPKLWNSGPVGGVFYNGSTTAKELPTQDAVKYKGHWDFMTDVANKGNRFSEVKGTRQAGWWYGASSKDEYNRLLTDEKNKPDGYNGEYGHSSEFTVNFKEKKLTGGLFSNLQDSHKQKVTKTKRYDIDANIHGNRFRGSAIASDKEKDSETKHPFTSDAKDRLEGGFYGPKGEELAGKFLTDDNKLFGVFGAKQESKADKTEAILDAYALGAFNKNDANTFTPFTKKQLDNFGNAKKLVLGSTVINLVSTDATKNEFTEDKPKSATNKAGETLMVNDKVSVKTYGYGRNFEYLKFGELSVGGSHSVFLQGERTATTGDKAVPTEGKAKYLGNWVGYITGTGTGKSFNEAQDIADFDIDFKNKTVNGKLTTKGRTDPVFNITGEISGNGWTGKASTAKADAGGYNIDSNGTNKSIVIRDADVTGGFYGPNATEMGGSFTHNTNDSKASVVFGTKRQEEVKP
# modifications: lipidated (processed by Lgt, Lsp, and Lnt)
# Target: T1, E. coli Skp with N-terminal 6xHis tag, …
# Test: cell-based or functional assay
binder,measurement,value
B1,"protection of urea-unfolded purified TbpB from proteinase K with Skp (and LolA) added to empty liposomes, against SurA + Slam1 proteoliposomes (3.5% protection)",≤ 10%
